Laboratory results reported in patent publication US20190307899A1, “JUNCTOPHILIN-2 FRAGMENTS AND USES THEREFOR” (University of Lowa Research Foundation, published 2019).
One block for each binder: values may come before it.

Experiments:
[1] = target: GST-JP2NT (junctophilin-2 residues 1-565) (Mus musculus, UniProt Q9ET78 SEQ:1-565); experiment: EMSA; details: tags: GST
[2] = target: T1, JP2(1-565) truncation with N-terminal FLAG tag (plasmid construct of FIG. 4)
T1 chain: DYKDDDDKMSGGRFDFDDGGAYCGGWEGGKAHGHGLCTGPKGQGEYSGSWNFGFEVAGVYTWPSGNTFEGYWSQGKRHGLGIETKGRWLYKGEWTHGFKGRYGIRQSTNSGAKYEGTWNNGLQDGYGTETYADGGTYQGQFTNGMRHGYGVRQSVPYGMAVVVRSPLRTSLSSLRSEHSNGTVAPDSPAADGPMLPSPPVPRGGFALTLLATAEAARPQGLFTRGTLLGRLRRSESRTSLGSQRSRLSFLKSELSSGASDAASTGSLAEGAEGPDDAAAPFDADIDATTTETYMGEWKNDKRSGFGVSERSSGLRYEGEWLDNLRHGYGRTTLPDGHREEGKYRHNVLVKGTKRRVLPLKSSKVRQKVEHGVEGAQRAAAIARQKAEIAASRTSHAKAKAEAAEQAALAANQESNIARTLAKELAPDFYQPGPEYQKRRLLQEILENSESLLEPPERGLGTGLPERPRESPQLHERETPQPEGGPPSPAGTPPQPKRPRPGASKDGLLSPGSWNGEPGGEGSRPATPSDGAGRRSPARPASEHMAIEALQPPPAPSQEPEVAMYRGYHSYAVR

[3] = target: T2, full-length JP2 Δ(198-205) with N-terminal FLAG and C-terminal HA tags
T2 chain: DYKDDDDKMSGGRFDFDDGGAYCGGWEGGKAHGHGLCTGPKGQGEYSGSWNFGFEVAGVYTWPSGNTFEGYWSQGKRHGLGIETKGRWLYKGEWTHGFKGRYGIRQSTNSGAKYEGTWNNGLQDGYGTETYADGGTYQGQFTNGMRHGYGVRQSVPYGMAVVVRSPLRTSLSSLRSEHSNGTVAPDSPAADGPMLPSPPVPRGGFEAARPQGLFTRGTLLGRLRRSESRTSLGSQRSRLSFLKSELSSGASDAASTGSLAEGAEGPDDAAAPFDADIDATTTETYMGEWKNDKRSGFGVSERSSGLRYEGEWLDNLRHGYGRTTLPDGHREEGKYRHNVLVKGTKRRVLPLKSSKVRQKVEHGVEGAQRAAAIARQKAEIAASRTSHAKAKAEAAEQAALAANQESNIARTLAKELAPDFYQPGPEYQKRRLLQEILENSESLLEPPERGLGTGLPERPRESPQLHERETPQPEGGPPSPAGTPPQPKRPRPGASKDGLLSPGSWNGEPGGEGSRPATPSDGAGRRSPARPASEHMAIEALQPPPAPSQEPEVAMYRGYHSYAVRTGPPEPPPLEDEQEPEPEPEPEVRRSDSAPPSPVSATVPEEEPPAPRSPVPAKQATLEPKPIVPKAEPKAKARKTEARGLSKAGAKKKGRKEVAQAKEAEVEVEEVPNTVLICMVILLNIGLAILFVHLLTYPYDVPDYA

[4] = target: T3, full-length JP2 Δ(563-568) with N-terminal FLAG and C-terminal HA tags
T3 chain: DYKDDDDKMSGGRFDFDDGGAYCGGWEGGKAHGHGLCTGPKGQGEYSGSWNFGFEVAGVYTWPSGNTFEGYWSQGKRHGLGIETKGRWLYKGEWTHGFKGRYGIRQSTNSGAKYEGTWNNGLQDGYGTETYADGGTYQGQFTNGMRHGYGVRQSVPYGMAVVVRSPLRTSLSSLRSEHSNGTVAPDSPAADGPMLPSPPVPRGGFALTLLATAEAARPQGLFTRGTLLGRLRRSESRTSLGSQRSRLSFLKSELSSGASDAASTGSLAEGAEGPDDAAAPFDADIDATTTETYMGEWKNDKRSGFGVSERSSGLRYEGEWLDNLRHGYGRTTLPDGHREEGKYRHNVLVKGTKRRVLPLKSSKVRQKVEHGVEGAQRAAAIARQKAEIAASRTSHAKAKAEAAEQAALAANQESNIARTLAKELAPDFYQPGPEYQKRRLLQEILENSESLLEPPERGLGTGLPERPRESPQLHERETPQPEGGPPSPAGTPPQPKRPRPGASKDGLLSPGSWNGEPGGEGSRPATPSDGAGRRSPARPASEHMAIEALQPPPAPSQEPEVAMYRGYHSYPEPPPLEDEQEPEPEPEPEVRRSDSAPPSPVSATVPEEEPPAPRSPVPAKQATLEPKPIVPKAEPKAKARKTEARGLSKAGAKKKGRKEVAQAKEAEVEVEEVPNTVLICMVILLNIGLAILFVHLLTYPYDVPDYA

[5] = target: T4, full-length JP2 Δ(153-158) with N-terminal FLAG and C-terminal HA tags
T4 chain: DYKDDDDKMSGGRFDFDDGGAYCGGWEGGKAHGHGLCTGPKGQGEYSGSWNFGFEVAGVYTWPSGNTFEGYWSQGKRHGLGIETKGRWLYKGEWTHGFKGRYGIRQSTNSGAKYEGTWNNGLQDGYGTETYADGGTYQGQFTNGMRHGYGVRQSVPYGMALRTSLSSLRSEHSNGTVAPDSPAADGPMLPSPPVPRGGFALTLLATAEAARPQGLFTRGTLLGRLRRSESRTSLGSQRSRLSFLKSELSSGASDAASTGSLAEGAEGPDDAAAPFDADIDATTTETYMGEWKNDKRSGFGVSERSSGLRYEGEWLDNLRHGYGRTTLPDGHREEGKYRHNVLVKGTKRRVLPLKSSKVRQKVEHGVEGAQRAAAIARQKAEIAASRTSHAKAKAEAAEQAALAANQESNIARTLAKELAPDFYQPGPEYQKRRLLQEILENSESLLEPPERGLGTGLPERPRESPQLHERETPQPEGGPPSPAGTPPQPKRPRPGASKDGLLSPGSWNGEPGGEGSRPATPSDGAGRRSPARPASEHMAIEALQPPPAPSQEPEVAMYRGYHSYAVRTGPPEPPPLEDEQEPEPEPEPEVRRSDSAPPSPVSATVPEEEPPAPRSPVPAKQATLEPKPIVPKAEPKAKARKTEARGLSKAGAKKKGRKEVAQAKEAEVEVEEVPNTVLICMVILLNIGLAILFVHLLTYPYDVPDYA

[6] = target: T5, junctophilin-2 (JP2), murine, full length, untagged
T5 chain: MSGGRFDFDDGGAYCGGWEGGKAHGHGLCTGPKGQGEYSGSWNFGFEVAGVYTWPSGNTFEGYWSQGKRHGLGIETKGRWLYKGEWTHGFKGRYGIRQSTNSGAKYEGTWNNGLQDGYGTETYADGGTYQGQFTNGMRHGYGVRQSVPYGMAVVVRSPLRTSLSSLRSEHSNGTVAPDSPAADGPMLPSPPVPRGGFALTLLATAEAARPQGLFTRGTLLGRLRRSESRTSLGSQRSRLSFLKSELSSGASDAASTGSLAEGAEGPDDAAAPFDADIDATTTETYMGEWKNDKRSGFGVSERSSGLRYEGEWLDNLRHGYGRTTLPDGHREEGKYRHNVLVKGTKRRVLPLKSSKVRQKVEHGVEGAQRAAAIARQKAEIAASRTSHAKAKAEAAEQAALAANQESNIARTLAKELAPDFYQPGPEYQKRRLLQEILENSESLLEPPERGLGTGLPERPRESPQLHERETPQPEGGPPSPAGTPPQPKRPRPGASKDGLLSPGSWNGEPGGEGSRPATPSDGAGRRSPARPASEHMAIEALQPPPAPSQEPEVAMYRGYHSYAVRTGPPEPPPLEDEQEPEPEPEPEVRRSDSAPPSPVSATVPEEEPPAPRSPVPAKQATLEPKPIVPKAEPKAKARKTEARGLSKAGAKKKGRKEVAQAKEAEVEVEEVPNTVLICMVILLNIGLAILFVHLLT

[7] = target: T6, junctophilin-2 (JP2), human, in human heart lysates, Q9BR39
T6 chain: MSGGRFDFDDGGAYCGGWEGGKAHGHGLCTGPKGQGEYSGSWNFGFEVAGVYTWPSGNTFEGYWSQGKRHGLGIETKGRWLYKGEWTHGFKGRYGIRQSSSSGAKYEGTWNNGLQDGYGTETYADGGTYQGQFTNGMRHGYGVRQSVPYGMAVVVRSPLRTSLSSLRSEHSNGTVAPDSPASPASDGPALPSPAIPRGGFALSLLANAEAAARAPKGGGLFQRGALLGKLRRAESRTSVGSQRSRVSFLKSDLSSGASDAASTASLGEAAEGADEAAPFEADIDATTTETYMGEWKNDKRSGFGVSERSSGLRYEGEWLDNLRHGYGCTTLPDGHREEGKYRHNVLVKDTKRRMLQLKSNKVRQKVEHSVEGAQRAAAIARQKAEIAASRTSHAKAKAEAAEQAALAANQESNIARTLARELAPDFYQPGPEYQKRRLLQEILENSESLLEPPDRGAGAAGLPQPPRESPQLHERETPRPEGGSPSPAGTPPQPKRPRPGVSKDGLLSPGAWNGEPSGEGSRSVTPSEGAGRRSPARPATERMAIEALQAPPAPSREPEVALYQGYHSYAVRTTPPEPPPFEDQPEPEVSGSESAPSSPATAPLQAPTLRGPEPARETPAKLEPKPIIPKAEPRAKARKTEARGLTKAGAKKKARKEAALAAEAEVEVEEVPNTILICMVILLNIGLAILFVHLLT

[8] = target: T7, Cav1.2 (voltage-gated L-type Ca2+ channel) (mouse, UniProt Q01815 1-2139); experiment: co-immunoprecipitation with anti-HA, Western blot
T7 construct: Endogenous prey of the co-immunoprecipitation

[9] = target: T8, type 2 ryanodine receptor (mouse, UniProt E9Q401 1-4966, limits assumed); experiment: co-immunoprecipitation with anti-HA, Western blot
T8 construct: Endogenous prey of the co-immunoprecipitation; also called RyR2
T8 sequence (E9Q401 whole entry): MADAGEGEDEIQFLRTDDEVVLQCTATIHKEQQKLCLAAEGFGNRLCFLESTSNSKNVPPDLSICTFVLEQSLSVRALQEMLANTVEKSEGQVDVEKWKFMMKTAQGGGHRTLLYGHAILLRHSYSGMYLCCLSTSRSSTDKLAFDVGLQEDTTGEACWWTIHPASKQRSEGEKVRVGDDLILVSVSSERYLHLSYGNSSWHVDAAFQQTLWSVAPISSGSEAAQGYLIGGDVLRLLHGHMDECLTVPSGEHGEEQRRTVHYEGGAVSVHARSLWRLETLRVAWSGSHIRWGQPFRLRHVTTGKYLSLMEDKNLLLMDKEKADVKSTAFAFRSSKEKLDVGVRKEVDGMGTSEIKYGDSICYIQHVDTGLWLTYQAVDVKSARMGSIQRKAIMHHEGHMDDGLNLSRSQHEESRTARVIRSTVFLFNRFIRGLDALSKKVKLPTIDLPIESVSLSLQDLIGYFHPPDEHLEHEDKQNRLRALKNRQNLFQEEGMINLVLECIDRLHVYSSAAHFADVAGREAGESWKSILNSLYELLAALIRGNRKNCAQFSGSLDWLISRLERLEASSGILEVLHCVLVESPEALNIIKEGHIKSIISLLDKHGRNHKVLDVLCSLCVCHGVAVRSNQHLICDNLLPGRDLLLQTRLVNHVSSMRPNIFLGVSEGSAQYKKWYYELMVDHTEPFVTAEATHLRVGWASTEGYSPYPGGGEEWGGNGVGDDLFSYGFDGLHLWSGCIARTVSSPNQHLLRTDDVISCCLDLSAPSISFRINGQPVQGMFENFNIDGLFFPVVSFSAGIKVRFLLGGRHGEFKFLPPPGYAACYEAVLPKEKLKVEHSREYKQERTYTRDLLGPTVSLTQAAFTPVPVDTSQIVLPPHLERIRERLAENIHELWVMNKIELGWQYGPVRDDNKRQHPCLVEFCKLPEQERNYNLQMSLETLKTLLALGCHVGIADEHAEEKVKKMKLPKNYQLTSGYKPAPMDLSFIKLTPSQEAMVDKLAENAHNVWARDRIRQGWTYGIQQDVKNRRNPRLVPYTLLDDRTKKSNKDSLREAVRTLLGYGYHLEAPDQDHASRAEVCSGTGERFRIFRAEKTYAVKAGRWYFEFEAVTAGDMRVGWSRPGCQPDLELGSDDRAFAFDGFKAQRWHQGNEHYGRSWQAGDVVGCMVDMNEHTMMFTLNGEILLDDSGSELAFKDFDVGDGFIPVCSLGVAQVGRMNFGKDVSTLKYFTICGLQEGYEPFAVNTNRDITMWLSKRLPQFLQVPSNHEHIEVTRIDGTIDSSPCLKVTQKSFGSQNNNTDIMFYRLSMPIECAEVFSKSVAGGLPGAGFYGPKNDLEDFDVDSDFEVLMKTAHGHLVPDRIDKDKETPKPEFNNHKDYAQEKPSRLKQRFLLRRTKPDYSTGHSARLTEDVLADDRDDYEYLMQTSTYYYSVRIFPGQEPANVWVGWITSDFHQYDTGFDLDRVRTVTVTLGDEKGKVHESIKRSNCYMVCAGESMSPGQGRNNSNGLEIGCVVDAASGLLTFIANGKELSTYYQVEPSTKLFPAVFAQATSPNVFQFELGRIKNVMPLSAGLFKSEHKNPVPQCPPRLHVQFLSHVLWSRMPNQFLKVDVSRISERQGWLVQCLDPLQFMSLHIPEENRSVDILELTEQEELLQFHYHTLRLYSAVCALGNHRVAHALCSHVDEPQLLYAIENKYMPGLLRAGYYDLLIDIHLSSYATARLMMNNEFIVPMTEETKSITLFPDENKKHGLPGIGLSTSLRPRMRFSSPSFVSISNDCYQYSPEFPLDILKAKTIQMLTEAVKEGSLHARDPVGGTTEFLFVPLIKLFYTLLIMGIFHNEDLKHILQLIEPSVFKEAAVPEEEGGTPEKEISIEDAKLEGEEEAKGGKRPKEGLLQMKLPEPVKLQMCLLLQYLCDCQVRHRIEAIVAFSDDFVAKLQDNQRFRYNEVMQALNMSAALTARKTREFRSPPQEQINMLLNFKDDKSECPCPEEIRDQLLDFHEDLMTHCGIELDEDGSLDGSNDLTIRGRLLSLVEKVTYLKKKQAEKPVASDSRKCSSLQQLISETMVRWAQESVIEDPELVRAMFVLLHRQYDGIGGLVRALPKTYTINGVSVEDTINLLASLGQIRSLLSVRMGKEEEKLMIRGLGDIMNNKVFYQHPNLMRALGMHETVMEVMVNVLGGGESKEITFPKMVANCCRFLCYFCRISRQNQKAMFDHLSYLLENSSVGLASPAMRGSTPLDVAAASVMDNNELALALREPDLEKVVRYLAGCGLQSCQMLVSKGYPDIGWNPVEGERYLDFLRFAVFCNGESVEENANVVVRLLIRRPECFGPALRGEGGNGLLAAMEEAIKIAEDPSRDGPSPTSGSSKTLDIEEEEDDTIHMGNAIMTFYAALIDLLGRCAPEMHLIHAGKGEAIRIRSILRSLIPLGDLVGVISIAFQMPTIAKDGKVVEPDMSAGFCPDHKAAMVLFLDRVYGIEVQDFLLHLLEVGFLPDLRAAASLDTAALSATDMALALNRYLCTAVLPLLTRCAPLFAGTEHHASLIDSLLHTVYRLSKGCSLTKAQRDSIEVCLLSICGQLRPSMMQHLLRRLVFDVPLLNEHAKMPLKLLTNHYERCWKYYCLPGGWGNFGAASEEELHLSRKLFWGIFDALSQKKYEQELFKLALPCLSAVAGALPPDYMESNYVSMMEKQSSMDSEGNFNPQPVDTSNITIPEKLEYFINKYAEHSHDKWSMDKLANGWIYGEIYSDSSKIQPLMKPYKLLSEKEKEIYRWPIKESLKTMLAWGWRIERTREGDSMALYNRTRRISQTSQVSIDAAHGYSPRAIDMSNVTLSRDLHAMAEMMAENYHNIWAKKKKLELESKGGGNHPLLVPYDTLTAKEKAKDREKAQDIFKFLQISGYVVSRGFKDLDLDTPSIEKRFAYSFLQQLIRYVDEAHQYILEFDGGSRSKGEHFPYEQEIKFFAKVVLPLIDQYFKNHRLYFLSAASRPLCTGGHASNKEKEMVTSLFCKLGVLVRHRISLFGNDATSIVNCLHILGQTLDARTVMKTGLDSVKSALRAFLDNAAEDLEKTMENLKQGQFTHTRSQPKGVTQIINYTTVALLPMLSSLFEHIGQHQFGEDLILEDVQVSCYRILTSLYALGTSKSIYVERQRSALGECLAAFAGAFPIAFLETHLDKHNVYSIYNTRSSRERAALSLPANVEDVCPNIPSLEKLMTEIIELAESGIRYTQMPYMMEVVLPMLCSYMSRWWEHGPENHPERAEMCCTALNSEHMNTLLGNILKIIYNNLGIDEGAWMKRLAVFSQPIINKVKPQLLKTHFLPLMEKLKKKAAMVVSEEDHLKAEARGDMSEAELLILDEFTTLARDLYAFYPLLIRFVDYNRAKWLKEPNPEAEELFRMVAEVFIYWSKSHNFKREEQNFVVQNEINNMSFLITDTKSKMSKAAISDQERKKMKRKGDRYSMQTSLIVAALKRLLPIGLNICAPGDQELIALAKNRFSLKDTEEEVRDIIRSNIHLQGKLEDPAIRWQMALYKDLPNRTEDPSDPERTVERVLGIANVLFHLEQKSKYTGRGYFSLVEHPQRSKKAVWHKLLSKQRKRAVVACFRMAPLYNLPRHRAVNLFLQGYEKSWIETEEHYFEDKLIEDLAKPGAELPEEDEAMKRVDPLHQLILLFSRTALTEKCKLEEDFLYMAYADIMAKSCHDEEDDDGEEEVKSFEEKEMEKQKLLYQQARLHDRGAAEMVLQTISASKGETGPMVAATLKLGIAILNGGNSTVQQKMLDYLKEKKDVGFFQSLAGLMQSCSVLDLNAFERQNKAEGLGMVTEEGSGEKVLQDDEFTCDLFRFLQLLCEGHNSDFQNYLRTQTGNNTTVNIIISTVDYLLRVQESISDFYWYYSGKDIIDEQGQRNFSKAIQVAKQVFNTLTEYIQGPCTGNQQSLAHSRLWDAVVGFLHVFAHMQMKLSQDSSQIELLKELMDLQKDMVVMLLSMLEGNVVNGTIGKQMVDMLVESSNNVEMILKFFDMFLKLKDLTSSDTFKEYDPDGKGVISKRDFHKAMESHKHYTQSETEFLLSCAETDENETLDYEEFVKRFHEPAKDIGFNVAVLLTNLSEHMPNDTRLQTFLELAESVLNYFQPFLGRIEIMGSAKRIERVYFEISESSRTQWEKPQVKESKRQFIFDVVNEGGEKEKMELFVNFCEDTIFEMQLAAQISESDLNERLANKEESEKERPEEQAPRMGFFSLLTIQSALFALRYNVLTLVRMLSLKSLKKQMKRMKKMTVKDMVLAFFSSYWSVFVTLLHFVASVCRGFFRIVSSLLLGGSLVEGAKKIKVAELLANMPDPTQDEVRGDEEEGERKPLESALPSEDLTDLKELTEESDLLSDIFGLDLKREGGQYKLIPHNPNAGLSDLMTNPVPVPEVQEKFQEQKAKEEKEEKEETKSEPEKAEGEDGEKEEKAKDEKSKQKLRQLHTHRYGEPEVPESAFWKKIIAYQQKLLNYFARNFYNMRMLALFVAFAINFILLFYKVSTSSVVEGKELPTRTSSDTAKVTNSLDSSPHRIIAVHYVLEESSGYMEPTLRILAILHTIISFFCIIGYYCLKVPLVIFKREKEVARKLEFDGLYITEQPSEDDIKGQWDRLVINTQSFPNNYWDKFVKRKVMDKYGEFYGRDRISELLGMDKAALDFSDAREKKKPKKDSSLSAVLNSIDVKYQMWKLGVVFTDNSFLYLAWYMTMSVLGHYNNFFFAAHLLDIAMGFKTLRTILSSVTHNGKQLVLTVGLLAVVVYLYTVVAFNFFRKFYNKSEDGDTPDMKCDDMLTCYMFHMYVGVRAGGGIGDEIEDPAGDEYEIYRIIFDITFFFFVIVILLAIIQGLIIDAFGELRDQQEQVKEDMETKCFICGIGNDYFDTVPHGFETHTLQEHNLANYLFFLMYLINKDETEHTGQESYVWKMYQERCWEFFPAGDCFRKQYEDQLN

B1: TATA box variant TATAAT (dsDNA)
DNA 1: GGGATCTGAGTCGCAGTATAATAGAAGCTTTTCGGGCGTT
DNA 2: AACGCCCGAAAAGCTTCTATTATACTGCGACTCAGATCCC
modifications: [22]
binding result [1]: binds

B2: purified human calpain I (protein)
chain: SEEIITPVYCTGVSAQVQKQRARELGLGRHENAIKYLGQDYEQLRVRCLQSGTLFRDEAFPPVPQSLGYKDLGPNSSKTYGIKWKRPTELLSNPQFIVDGATRTDICQGALGDCWLLAAIASLTLNDTLLHRVVPHGQSFQNGYAGIFHFQLWQFGEWVDVVVDDLLPIKDGKLVFVHSAEGNEFWSALLEKAYAKVNGSYEALSGGSTSEGFEDFTGGVTEWYELRKAPSDLYQIILKALERGSLLGCSIDISSVLDMEAITFKKLVKGHAYSVTGAKQVNYRGQVVSLIRMRNPWGEVEWTGAWSDSSSEWNNVDPYERDQLRVKMEDGEFWMSFRDFMREFTRLEICNLTPDALKSRTIRKWNTTLYEGTWRRGSTAGGCRNYPATFWVNPQFKIRLDETDDPDDYGDRESGCSFVLALMQKHRRRERRFGRDMETIGFAVYEVPPELVGQPAVHLKRDFFLANASRARSEQFINLREVSTRFRLPPGEYVVVPSTFEPNKEGDFVLRFFSEKSAGTVELDDQIQANLPDEQVLSEEEIDENFKALFRQLAGEDMEISVKELRTILNRIISKHKDLRTKGFSLESCRSMVNLMDRDGNGKLGLVEFNILWNRIRNYLSIFRKFDLDKSGSMSAYEMRMAIESAGFKLNKKLYELIITRYSEPDLAVDFDNFVCCLVRLETMFRFFKTLDTDLDGVVTFDLFKWLQLTMFA
in vitro calpain cleavage, Western blot with anti-FLAG [2]: this fragment can be further processed by calpain to generate N-I, N-II, and N-III fragments
in vitro calpain cleavage assay, Western blot [3]: resulted in complete loss of the JP2 cleavage product N-II but had no effect on the generation of N-I
in vitro calpain cleavage assay, Western blot [4]: led to complete loss of N-IV (FIG. 4D, d) and a severe reduction in C-I
in vitro calpain cleavage assay, Western blot [5]: completely abolished the generation of N-I in the in vitro calpain cleavage assay
in vitro calpain cleavage of WT mouse heart lysates, Western blot of full-length JP2 [6]: significant reduction in full-length JP2 upon addition of calpain I
in vitro calpain cleavage of human heart lysates, Western blot of JP2 [7]: time-dependent and Ca^2+/calpain-dependent JP2 down-regulation

binding result [9]: no binding
B3: JP2(566-end)-HA (other)
chain: TGPPEPPPLEDEQEPEPEPEPEVRRSDSAPPSPVSATVPEEEPPAPRSPVPAKQATLEPKPIVPKAEPKAKARKTEARGLSKAGAKKKGRKEVAQAKEAEVEVEEVPNTVLICMVILLNIGLAILFVHLLTYPYDVPDYA
notes: also called JP(566-end); Ad-JP2(566-end)
binding result [8]: no binding
